Consider one molecule from PMC3519786, “Novel Interactions between FOXM1 and CDC25A Regulate the Cell Cycle” (PLoS ONE, 2012).

This test addresses T1, GAL4-FOXM1 C-terminal fragment (amino acids 330-763) (human, UniProt Q08050-1 330-763).
T1 construct: FOXM1, human, C-terminal fragment, amino acids 330-763; from pCMV-XL5-FOXM1B (Origene); also called C-terminal FOXM1; C-terminus of FOXM1; source: mammalian two-hybrid fusion, U2OS, transfected
T1 sequence (looked up): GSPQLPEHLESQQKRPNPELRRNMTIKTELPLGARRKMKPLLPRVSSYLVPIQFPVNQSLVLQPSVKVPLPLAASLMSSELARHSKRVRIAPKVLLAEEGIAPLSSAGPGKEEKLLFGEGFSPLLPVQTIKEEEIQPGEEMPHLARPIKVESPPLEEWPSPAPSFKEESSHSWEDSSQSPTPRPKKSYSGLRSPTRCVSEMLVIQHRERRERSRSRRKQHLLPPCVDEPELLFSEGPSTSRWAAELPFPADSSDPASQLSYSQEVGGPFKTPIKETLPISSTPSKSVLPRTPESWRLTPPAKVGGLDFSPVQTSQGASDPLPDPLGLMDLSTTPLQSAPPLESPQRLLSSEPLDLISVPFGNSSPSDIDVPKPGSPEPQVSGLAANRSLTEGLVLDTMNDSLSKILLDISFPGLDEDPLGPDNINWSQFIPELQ
The experiment in a line: two-hybrid; mammalian two-hybrid (Checkmate, Promega) in U2OS; bait pBIND (GAL4 DNA-binding domain)-FOXM1, prey pACT (VP16 activation domain)-CDC25A, reporter pG5-luc; firefly normalised to Renilla luciferase; 2 days. To be noted: partners not purified.

B1: VP16-CDC25A (natural protein, UniProt P30304 1-524, looked up)
chain: MELGPEPPHRRRLLFACSPPPASQPVVKALFGASAAGGLSPVTNLTVTMDQLQGLGSDYEQPLEVKNNSNLQRMGSSESTDSGFCLDSPGPLDSKENLENPMRRIHSLPQKLLGCSPALKRSHSDSLDHDIFQLIDPDENKENEAFEFKKPVRPVSRGCLHSHGLQEGKDLFTQRQNSAPARMLSSNERDSSEPGNFIPLFTPQSPVTATLSDEDDGFVDLLDGENLKNEEETPSCMASLWTAPLVMRTTNLDNRCKLFDSPSLCSSSTRSVLKRPERSQEESPPGSTKRRKSMSGASPKESTNPEKAHETLHQSLSLASSPKGTIENILDNDPRDLIGDFSKGYLFHTVAGKHQDLKYISPEIMASVLNGKFANLIKEFVIIDCRYPYEYEGGHIKGAVNLHMEEEVEDFLLKKPIVPTDGKRVIVVFHCEFSSERGPRMCRYVRERDRLGNEYPKLHYPELYVLKGGYKEFFMKCQSYCEPPSYRPMHHEDFKEDLKKFRTKSRTWAGEKSKREMYSRLKKL
notes: CDC25A (cell division cycle 25A) dual phosphatase; plasmid bought from Origene; also called pACT-CDC25A; wild-type CDC25A; source: mammalian two-hybrid fusion, U2OS, transfected
As for B1, the “fold above background (normalised luciferase activity)” value is greater than 60000 fold.
